Data taken from patent US10197572B2, “Method and kit for detection of deltanoid-resistant leukemia cells and antibody for use therein” (WROCLAWSKIE CENTRUM BADAN EIT+ SP. Z O.O., priority 2014, dated 2019).

How the values were obtained:
KG1 cells [1] = conditions: exposure even to high concentrations; cited from earlier work
KG1-CtrA cells [2] = assay: expression of differentiation antigens CD11b and CD14 after exposure to deltanoids; type: cell-based; conditions: unpublished data
KG1 cells [3] = assay: as above; type: cell-based; conditions: FIG. 4b
Text: According to the invention, cells from the KG1 acute myeloid leukemia line were used as a model for cells resistant to differentiation mediated by deltanoids. […] Effect on clonal proliferation and differentiation of human myeloid cells. J Clin Invest, 1986. 78: p. […] J Steroid Biochem Mol Biol, 2012. 132(3-5): p. 220-6]. The HL60 acute myeloid leukemia cell line, used in laboratories engaged in studying deltanoid-mediated differentiation, served as a sensitive line model [Marcinkowska, E. et al., Cell differentiating and anti-proliferative activity of side-chain modified analogs of 1,25-dihydroxyvitamin D3. J Steroid Biochem Mol Biol, 1998. 67(1): p. 71-8; Gallagher, R. et al., Characterization of the continuous, differentiating myeloid cell line (HL-60) from a patient with acute promyelocytic leukemia. Blood, 1979. 54: p. 713-733; Brackman, D. et al., Expression of cell surface antigens during the differentiation of HL-60 cells induced by 1,25-dihydroxyvitamin D3, retinoic acid and DMSO. Leuk Res, 1995. 19: p. 57-64].
Studying susceptibility to differentiation mediated by deltanoids is done in a number of ways. One of these is observing the appearance of antigens typical for macrophages on the surface of deltanoid (calcitriol or analogs) treated cells, serving important functions for the macrophages. […]

HL60 cells [4] = conditions: exposure even to low concentrations; cited from earlier work
KG1 cells [5] = assay: flow cytometry, direct labeling with FITC-labeled scFv; type: binding
Procedure: (§1) FITC-labeled 6B and 8F antibodies were used to label the HL60, KG1 and KG1-CtrA cells. To this end, 5×10^5 cells of each were suspended in 50 μl of PBS buffer without calcium and magnesium ions with 0.1% BSA. Either 1 μg of the 8F/FITC protein or 1 μg of the 6B/FITC protein were added to each suspension. Samples were incubated for 45 minutes in darkness on ice, then washed with PBS without calcium and magnesium ions, supplemented with 0.1% BSA and subsequently fluorescence of the samples was read by flow cytometry.

HL60 cells [6] = assay: as above; type: binding
Procedure: as §1

HL60 cells [7] = assay: ELISA on whole cells; type: binding
Text: (§2) Screening the library in order to find antibodies in an scFv format, specifically interacting with the KG1 line, was done based on ELISA according to the Tomlinson protocol (phages with envelope protein fused with scFv after expression on a 96-well plate served as the primary antibody for ELISA). Again, the cells were not immobilized on a Nunc U plate but only centrifuged in mild conditions. The identified positive clones were expressed in the form of solubilized scFv (without fusion with a phage envelope protein) and purified on a protein A resin, and then tested on KG1 cells and HL60 cells obtaining desired results (specificity against KG1 line) (FIG. 1).
At the same time, it was observed that the HL60 cells spontaneously convert the substrate for HRP conjugated with the secondary antibody, giving results that need to be analyzed with caution. To this end, the reaction for HL60 was stopped sooner but the results required additional confirmation with a different method anyway.

KG1 cells [8] = assay: flow cytometry, sandwich labeling with scFv and FITC-conjugated secondary antibody; type: binding; conditions: KG1 + 6B + anti-c-myc-FITC, sandwich method
Procedure: (§3) As a confirmation of the ELISA assays, the flow cytometry analysis was conducted, wherein the cells were labeled with a FITC-conjugated antibody in an scFv format (direct labeling) or with an antibody in an scFv format and then with a FITC-conjugated secondary antibody recognizing the former (sandwich method).
(§4) Optimal dilution of the secondary antibody in the sandwich method is 1:100 or 1:50 (10^5 cells).

HL60 cells [9] = assay: as above; type: binding; conditions: HL60 + 6B + anti-c-myc-FITC, sandwich method
Procedure: as §3, §4

KG1-CtrA cells [10] = assay: flow cytometry, direct labeling with FITC-labeled scFv; type: binding; conditions: 1 μg 6B/FITC, 5×10^5 KG1-CtrA cells, FIG. 5
Procedure: as §1

KG1 cells [11] = assay: library screening with the ELISA method on whole cells; type: binding; conditions: FIG. 1, background subtracted
Text: The OD450-OD650 signal informs of the binding strength of the tested antibody to KG1 cells (more particularly: of the amount of the antibody bound to the antigen, being then recognized by a secondary HRP-conjugated antibody). Background signal, namely OD450-OD650 for the control with only the secondary antibody, was then subtracted from all measurements. The numbers and letters indicate the position on a 96-well plate.
as §2

## C=C1/C(=C\C=C2/CCC[C@]3(C)[C@@H]([C@H](C)CCCC(C)(C)O)CC[C@@H]23)C[C@@H](O)C[C@@H]1O [calcitriol]
KG1 cells [1]
  CD11 b and CD14 expression: do not alter
KG1-CtrA cells [2]
  expression of differentiation antigens CD11 b and CD14: significantly increase expression
KG1 cells [3]
  differentiation after exposure: lack of differentiation
HL60 cells [4]
  expression of CD14 and CD11b antigens: significantly increase expression

B1: 8F: scFv of SEQ ID NO: 2, negative control, same framework as 6B, differing only in hypervariable fragments (protein)
scFv: EVQLLESGGGLVQPGGSLRLSCAASGFTFSSYGMSWVRQAPGKGLEWVSWIDASGTRTQYADSVKGRFTISRDNSKNTLYLQMNSLRAEDTAVYYCAKLFRSFDYWGQGTLVTVSSGGGGSGGGGSGGGGSTDIQMTQSPSSLSASVGDRVTITCRASQSISSYLNWYQQKPGKAPKLLIYRASSLQSGVPSRFSGSGSGTDFTLTISSLQPEDFATYYCQQGQTLPITFGQGTKVEIKRAAA
modifications: antibody 8F
KG1 cells [5]
  recognition of deltanoid-resistant leukemia cells: not recognizing
HL60 cells [6]
  recognition of deltanoid-sensitive leukemia cells: not recognizing

B2: 6B: scFv of SEQ ID NO: 1, which specifically recognizes KG1 cells line, obtained by phage display (protein)
scFv: EVQLLESGGGLVQPGGSLRLSCAASGFTFSSYGMSWVRQAPGKGLEWVSTIRTAGRATEYADSVKGRFTISRDNSKNTLYLQMNSLRAEDTAVYYCAKSPQTFDYWGQGTLVTVSSGGGGSGGGGSGGGGSTDIQMTQSPSSLSASVGDRVTITCRASQSISSYLNWYQQKPGKAPKLLIYRASRLQSGVPSRFSGSGSGTDFTLTISSLQPEDFATYYCQQRLTIPITFGQGTKVEIKRAAA
modifications: antibody 6B
HL60 cells [7]
  ELISA signal in comparison to control with non-specific scFv: no increased signal
KG1 cells [8]
  FITC+: % Vis: 100.0%
  FITC+: GeoMean: 28.1
  FITC+: mean: 29.4
  FITC+: median: 28.4
HL60 cells [9]
  FITC+: GeoMean: 9.8
  FITC+: mean: 10.7
  FITC+: median: 8.9
KG1-CtrA cells [10]
  presence of the 6B-binding antigen: lost
KG1 cells [11]
  OD450-OD650 signal (binding strength to KG1 cells): clearly prominent
